Data published in the NTF2 design screens of Basanta et al. (2020).

Assay: protease stability score; higher = more stable; yeast display proteolysis, trypsin and chymotrypsin;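 also: relative to predicted unfolded state with 0 unfolded-like and 1 meaning tenfold more protease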

Sequence | protease stability score
DEKDKMSEVTLKLYIHWFLTGDWKSLFDLVDPHMQVRVGDKKFHGREQAVEEIERLLKRIDHITHIQERSFEIIGNKVHLDGELNVIIDGKRIVKDQIIIAVKIDGKWLLQIDEFE | 1.92
DEDEELYEKFTRDLNHSLMTGDEEVMRELADPHVKVDFNGRELHGWEAVTFLLRVMGIDHLELKDIRLQGDKARNYTILRFNGRTSTLIVVLHKVNGKWIIESFEYR | 1.07
EEDKEDAKKAAEISSHSWETGDEDHLTKLFDPNVRITIGDKELHGMSLLHTFLREWGISNVDFRLHHIDVQGEKLKVDGILNVNGRHTKVTLHYEKINGKWVIKEIIII | 1.26
DEDDRIHEWSMRWLIQSLRTGDEDMLREYIDPHTRVHVNGKEEHGREAADKLAKRIDHLHHLIIRSEERQGDKIIMDIERDILIDGVRINTRVSLILLKVNGRWFMKSIHFL | 0.826
DEDEQKHREAAHLMLEMILTGDFEYFRHLLDPDVRLEINGKEIHGREEVYRHLLEWWQRIKNVRIKFKTMRIHIFDGVLFIHLDLEIEIGDKSIKTEILIVSIKIDGRWLLNSLHIHDR | 1.04
SEKEEDLRRAEQDFLREMETGDEHLTSELADPHVRIDIGDKVYHGREFWSKFVRRVKNATIQITHRQYQGDKLWLDGILNVDGRNIRMLVIIHKIDGVWVFKYVDIH | 2.27
SEDEKNVDEFMERMTRLTETGDEDNLRHLMDPNVYLHQGDKVHHGREDVVKAIREIIDNLGVTQVKAEVHSFEVIGDKMDLRGTLEFNGVRWRRHIDIHKVDGRWHLQFVHIE | 0.251
DEKHELTKRLVELFLHAMHTGNEDLLHEYMDPNVKLVVNGQEHHGRELANSVIRRMIEELRLKDSKIKDIEFQGEKVHLDVHLHFRQGDKHITLDARIILLKVDGRWVIESLIFH | 1.76
SEEKKLYDLAWELLLQSEKTGNEEIFERLADPHVRSHINGVDYIGRERFSELAHEINRELRIEDIHLHDVDLQGDKVNMSGSLTGHVNGKRHEYTMKIHFEKINGRWIIRSVSWE | 1.39
SEVQESIKEVIEIWNKALETGDWHRLTELADPDTRVEIGDKDIIGREAVTSELEKVTHKFKNLRIDEIHIERLEIQGEKVELHGIIRGTVNGQHRFYHTEFIIVKINGRWRLRVIYFL | 1.79
DESEERSRHATELFIRAIHTGDEHTLMNLLDPHVRTHYGDKEVHGRENVVKVMLELLHKLGADHVRWEYHDFKDINGRLHMDWRLHVVVGDKELTLQTHIITEKINGRWHSKYMEIR | 0.183
SELEDMLRHMFDLFWRAFRTGDWELLMRLADPHVRLEVRFNGRHIEHVGRESFVESVETLRHEWRIDHLRINDEKYQGDYVNLNTRMDVFFDGVKVRTDTRVHSVVVNGRLREFSIEFG | 0.495
TEDEKVNDLAMEEIYTLMLTGDEERMEELFDPNVRMIIDGRRHVGREVFKDHMREWRWERTHVEDQRTFDGRAILHTRVDVTVGDKRRDVRIHIISSKINGRWVIKRIIIE | 0.758
SEDKHMLELALKLLKDSWKTGDEHLSERLMDPHVRLEQGDKEFHGREASQLWFRQIDHVEDMHVHRIRMINGKAYMDVHVVGNVNGKHVEFHQHIVFHKVNGRWIVESVVDS | 1.26
DEEEELARRASRKLIELMLTGDEDSLEEMLDPNVKVQIGDKELHGRIAIEIMSRQFKNVRIEVKRLSVQGNYVDLDVRVNINGVWVEQRIQIEKVDGRWTLKENTIV | 2.23
DEARVIFEEFIRQLLHAIRTGDFDLYRHLADPHVQVEIGDKVFWGREVITEFEDDLLRRMGVNHVDMRIRIFEIIDGRIHIVGEHRIDVNGRDEHIDTRVLVHKVDGRWVLRRERRT | 0.647
SERHELVVRIVRLWIRMIRTGNEELYMRLADPHVKLDVNGREMHGRERSTEMWSELRIRHLHTEHIEVAENRFVVHGRLVTEFNGKEHDVKVVIHVEIVDGRIKEEEYHIL | 1.29
DEWEKDARDFTRILLEIFKTGDEKSITELLDPNARVEYGDKEMHGMHLMSRILLKDAKEIRVDHMRLRSIDVYNGVLHVNMEVDGTIDGRRDTYRLHVHTHKFDGRWRVENLIIR | 1.06

Sequence | protease stability score
TEEEELSRKAAEILDEAQQTGDEDSIRELVDPNVKYEINGRIFVGWQEMLHAFRLELRHIRLREVHIKREKRIGNWMFIDSSMDGEVNGVRTERKSELVFLKFDGQWSLHSMRIE | 1.56
TEEEHLVEEMARRMLHSWLTGDEETLERLLDPNVRLEMIIDGVELRLHGREDMSRWLREWVERVDHVEIEIKRIRLIGEKSILDGQIHERQGDKERVIKTEIIVVVVDGRIHNSKIIIR | 1.14
DELTRDFEEATELLIRILLTGDEDIFREMADPNVRLHYGDKTFIGREEFVKWLHQWRIEDIKIDHVDLQGDYAIVHGRIRTVIGDKEHKVDTKWIIRKYNGKWDIREVHIR | 2.07
TESEKSAHEFLELFEKSIVTGDEDNLDKMADPNVQTIINGREFHGREEMVKAFREIWNIMGVKHIEIRLKQIDFQGEKISVDSRLHIDVNGKRIDHSMTIIFRKINGRWVLESINRD | 1.34
DEDTRLEKEFLRILEEILKTGDEERLRRLVDPNTRLEVGDKRFHGWDAVHYMLRIFGIERIHFELTSRRRVNGRLELDGILRFNGRDHDTHIIIDKINGVWIVREERVE | 2.19
SEDEEIAKEASEVFSDVLLTGNEDLFKEMIDPNVRVIVDGQDHIGRERALEFLIIWLERRGVEFKRVRVTRHRVIDGRVQMHYEVDSVVNGRRTNDSMELHSDKVNGRWIIRIIKFR | 2.38
LEEEEIARELLKRILDMLFTGDEEVLSELLDPNVRVDFNGVEIHGREHVREWMHHLRFRHLHLRDFRVQGDKLHLDTETRGEIDGQEVRIETRLIARKVDGRWILKSREFV | 1.53
TEDEKVMKEAVEIQIHMFRTGNWDSLHKLVDPNARLDVDGREFHGREDFVRFIKKEAHEARVEDVIFRHVTTQGDKIVTHFDVRGVINGVEEIRKVTVFLRKINGRWLIESEEID | 0.737
DDEERWTEEMYRIMIHIEKTGDEHTFSRLADPNVRLIVGDKHFHGRETFIEQLRKLIEHIRVEKIEIRHVELVGEKVILVMKRLSRIDGREVELEVHVEIVIVNGRYKMIRIEIR | 1.43
DEKEKLKQLARKFHKAMQTGDEDELKKNVDENVRADYGDRRYHGSEELAKWLREMKTKVDHLSMTIKDIRVKGDRAEIELEMTFDHNGRQETRQFTLQAQVHNGSLKIVQIRQS | 1.47
DESEELVRRFLEERIQDLRTGNWERIHENLDPNVRLIVNGRIFHGREALHVFRRRVDHNEDEKIRDVRIQGDKAEVDMEVLGVVNGVRTNFEAKLIMTKFDGKWSVKEVQID | 1.75
DEEDKLSKEFSRTWEEIWRTGDEQEIKHLADPDTRDLVYIDGVNIDNHGREEMSRSMREWRDKFKNAREHVTHSRAQGDKVEMRIRIDFNGREIDMIVKIIVVDGRLKEFEIEIR | 1.56
DETEEEVREAIEKFIQDLHTGNWHAYNEMLDPNVRVIVGDKHLHGRERVLEWEEEFMRKVKGATYRIDHMDVIDGRINLHFRITIGDKSREFNVHSLKINGQWHTKEVRVNIL | 1.06
SEEQEVARDFFKILTHFHQTGNEEIVHELFDPNVRLHVGDKEVHGREEFIKVERELRTDDMHLRHVELQGEFIRIDVRAKGRVNGRDLEFHVHIVVRKVNGRWILTSLHIK | 0.446
SELEKYSKLMLDLILHSRLTGDEEHHEKLMDPNVRIEIGDKELHGRELAVKWMSHWRLEELRVRHIHNQGDKINVDVEEVETVDGVRIRFRSELIILKVDGQWLNHSIITR | 1.16
DSLHEKVEIMAHLLVEIIRTGNEEDWRRYVDPNVRIRIGDKDLHGREEAFRVVREIRIIVHDIKIRSLDVQGDKVESDVEVDVEFRIGDKVNRIHTRFRLIWTKVDGRWINESMSIE | 2.61
EEEEQHMKEMAHIFIELMETGDEERLHKYFDPNWRFRIGDKHHHGRETYIHWLHQLGVDKVKVHLRHLDFQGDKLRIDSEREFDGKIEKIDIILIKFNGRWIINEIRVD | 1.29
DEEREKSELAIKIMKHVWETGDETLKSELFDPNARIHIDGKEIVGREEIEDQLRHIRMHITMFDINSTKFVDGRLEVYLNRRVRLFFDGREIEEEQHIHVVLLKINGRWQLQELEVT | 1.36
